US20170101454A1 (Novo Nordisk, published 2017)
Starred links: 1 amine or outer side, 2 acyl side, 3 side chain; linkers in the order of their positions; H or OH if unused. Non-standard residues stand in square brackets, D forms with d. Groups on a side chain read outwards from the residue. No end group written: not given here. *: point of attachment. C18 diacid = O=C(O)CCCCCCCCCCCCCCCCC(=O)*; γGlu = O=C(O)[C@H](CCC(=O)[*:2])N[*:1]; Ac4c = NC1(C(=O)O)CCC1; AEEA = NCCOCCOCC(=O)O; Aib = CC(C)(N)C(=O)O

Legend:
[1] = biological target: T1, human GLP-1 receptor (human, UniProt P43220 24-463); assay: cell-based or functional assay
[2] = biological target: T2, human glucagon receptor (human, UniProt P47871 26-477); assay: cell-based or functional assay
T2 sequence (P47871 26-477): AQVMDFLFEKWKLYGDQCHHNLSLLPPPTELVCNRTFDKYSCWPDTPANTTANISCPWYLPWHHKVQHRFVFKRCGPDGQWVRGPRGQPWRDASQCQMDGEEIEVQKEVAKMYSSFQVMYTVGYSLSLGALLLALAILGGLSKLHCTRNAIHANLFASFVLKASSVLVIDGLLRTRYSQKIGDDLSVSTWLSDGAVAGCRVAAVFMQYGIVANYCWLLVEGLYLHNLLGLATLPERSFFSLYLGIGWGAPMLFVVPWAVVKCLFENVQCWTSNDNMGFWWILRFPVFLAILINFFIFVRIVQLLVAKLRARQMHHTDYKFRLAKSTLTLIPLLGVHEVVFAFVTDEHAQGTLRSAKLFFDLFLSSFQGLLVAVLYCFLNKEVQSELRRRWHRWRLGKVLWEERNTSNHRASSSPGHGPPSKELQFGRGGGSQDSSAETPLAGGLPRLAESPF

[3] = biological target: T1, human GLP-1 receptor; assay: displacement of [125I]-GLP-1-(7-36)NH2 from BHK membranes with human GLP-1R, SPA, no serum albumin
[4] = biological target: T2, human glucagon receptor; assay: displacement of [125I]-glucagon from BHK membranes with human glucagon receptor, SPA, no serum albumin

Row | Binder | GLP-1R EC50 (pM) [Assay (I)(a)], CRE luciferase reporter, BHK cells [1] [pM] | GlucagonR EC50 (pM), [Assay (I)(b)], CRE luciferase reporter, BHK cells [2] [pM] | IC50 [3] [nM] | IC50 [4] [nM]
1 | H[Aib]QGTFTSDVSKYLESRRAQDFVQWLIK([AEEA-AEEA-γGlu-γGlu-γGlu-C18 diacid])T-NH2 (N-terminus assumed; SMILES CC[C@H](C)[C@H](NC(=O)[C@H](CC(C)C)NC(=O)[C@H](Cc1c[nH]c2ccccc12)NC(=O)[C@H](CCC(N)=O)NC(=O)[C@@H](NC(=O)[C@H](Cc1ccccc1)NC(=O)[C@H](CC(=O)O)NC(=O)[C@H](CCC(N)=O)NC(=O)[C@H](C)NC(=O)[C@H](CCCNC(=N)N)NC(=O)[C@H](CCCNC(=N)N)NC(=O)[C@H](CO)NC(=O)[C@H](CCC(=O)O)NC(=O)[C@H](CC(C)C)NC(=O)[C@H](Cc1ccc(O)cc1)NC(=O)[C@H](CCCCN)NC(=O)[C@H](CO)NC(=O)[C@@H](NC(=O)[C@H](CC(=O)O)NC(=O)[C@H](CO)NC(=O)[C@@H](NC(=O)[C@H](Cc1ccccc1)NC(=O)[C@@H](NC(=O)CNC(=O)[C@H](CCC(N)=O)NC(=O)C(C)(C)NC(=O)[C@@H](N)Cc1c[nH]cn1)[C@@H](C)O)[C@@H](C)O)C(C)C)C(C)C)C(=O)N[C@@H](CCCCNC(=O)COCCOCCNC(=O)COCCOCCNC(=O)CC[C@H](NC(=O)CC[C@H](NC(=O)CC[C@H](NC(=O)CCCCCCCCCCCCCCCCC(=O)O)C(=O)O)C(=O)O)C(=O)O)C(=O)N[C@H](C(N)=O)[C@@H](C)O, also called Chem. 10; Chem 10) | 3 | 748 | 0.1 | 42.4
2 | H[Aib]QGTFTSDLSKYLESRRARDFVQWLIK([AEEA-AEEA-γGlu-γGlu-γGlu-C18 diacid])T-NH2 (N-terminus assumed; SMILES CC[C@H](C)[C@H](NC(=O)[C@H](CC(C)C)NC(=O)[C@H](Cc1c[nH]c2ccccc12)NC(=O)[C@H](CCC(N)=O)NC(=O)[C@@H](NC(=O)[C@H](Cc1ccccc1)NC(=O)[C@H](CC(=O)O)NC(=O)[C@H](CCCNC(=N)N)NC(=O)[C@H](C)NC(=O)[C@H](CCCNC(=N)N)NC(=O)[C@H](CCCNC(=N)N)NC(=O)[C@H](CO)NC(=O)[C@H](CCC(=O)O)NC(=O)[C@H](CC(C)C)NC(=O)[C@H](Cc1ccc(O)cc1)NC(=O)[C@H](CCCCN)NC(=O)[C@H](CO)NC(=O)[C@H](CC(C)C)NC(=O)[C@H](CC(=O)O)NC(=O)[C@H](CO)NC(=O)[C@@H](NC(=O)[C@H](Cc1ccccc1)NC(=O)[C@@H](NC(=O)CNC(=O)[C@H](CCC(N)=O)NC(=O)C(C)(C)NC(=O)[C@@H](N)Cc1c[nH]cn1)[C@@H](C)O)[C@@H](C)O)C(C)C)C(=O)N[C@@H](CCCCNC(=O)COCCOCCNC(=O)COCCOCCNC(=O)CC[C@H](NC(=O)CC[C@H](NC(=O)CC[C@H](NC(=O)CCCCCCCCCCCCCCCCC(=O)O)C(=O)O)C(=O)O)C(=O)O)C(=O)N[C@H](C(N)=O)[C@@H](C)O, also called Chem. 3; Chem 3) | 2 | 245 | 0.1 | 31.6
3 | HXQGTFTSDYSRYLESRRARDFVQWLIKT (Acb at position 2; epsilon-N of Lys28 acylated with the substituent given in the name (17-carboxyheptadecanoyl-2xgGlu-Ado-gGlu-Ado-gGlu-Ado-gGlu-); C-terminal amide, also called Chem. 36; Chem 36) | 4 | 22 | 1.5 | 6.5
4 | H[Aib]QGTFTSDLSKYLDVRRAQDFVQWLIK([γGlu-AEEA-AEEA-γGlu-γGlu-C18 diacid])T-NH2 (N-terminus assumed; SMILES CC[C@H](C)[C@H](NC(=O)[C@H](CC(C)C)NC(=O)[C@H](Cc1c[nH]c2ccccc12)NC(=O)[C@H](CCC(N)=O)NC(=O)[C@@H](NC(=O)[C@H](Cc1ccccc1)NC(=O)[C@H](CC(=O)O)NC(=O)[C@H](CCC(N)=O)NC(=O)[C@H](C)NC(=O)[C@H](CCCNC(=N)N)NC(=O)[C@H](CCCNC(=N)N)NC(=O)[C@@H](NC(=O)[C@H](CC(=O)O)NC(=O)[C@H](CC(C)C)NC(=O)[C@H](Cc1ccc(O)cc1)NC(=O)[C@H](CCCCN)NC(=O)[C@H](CO)NC(=O)[C@H](CC(C)C)NC(=O)[C@H](CC(=O)O)NC(=O)[C@H](CO)NC(=O)[C@@H](NC(=O)[C@H](Cc1ccccc1)NC(=O)[C@@H](NC(=O)CNC(=O)[C@H](CCC(N)=O)NC(=O)C(C)(C)NC(=O)[C@@H](N)Cc1c[nH]cn1)[C@@H](C)O)[C@@H](C)O)C(C)C)C(C)C)C(=O)N[C@@H](CCCCNC(=O)CC[C@H](NC(=O)COCCOCCNC(=O)COCCOCCNC(=O)CC[C@H](NC(=O)CC[C@H](NC(=O)CCCCCCCCCCCCCCCCC(=O)O)C(=O)O)C(=O)O)C(=O)O)C(=O)N[C@H](C(N)=O)[C@@H](C)O, also called Chem. 40; Chem 40) | 3 | 30 | 1.2 | 7.1
5 | H[Aib]QGTFTSDLSKYLDLRRAQDFVQWLIK([AEEA-AEEA-γGlu-γGlu-γGlu-C18 diacid])T-NH2 (N-terminus assumed; SMILES CC[C@H](C)[C@H](NC(=O)[C@H](CC(C)C)NC(=O)[C@H](Cc1c[nH]c2ccccc12)NC(=O)[C@H](CCC(N)=O)NC(=O)[C@@H](NC(=O)[C@H](Cc1ccccc1)NC(=O)[C@H](CC(=O)O)NC(=O)[C@H](CCC(N)=O)NC(=O)[C@H](C)NC(=O)[C@H](CCCNC(=N)N)NC(=O)[C@H](CCCNC(=N)N)NC(=O)[C@H](CC(C)C)NC(=O)[C@H](CC(=O)O)NC(=O)[C@H](CC(C)C)NC(=O)[C@H](Cc1ccc(O)cc1)NC(=O)[C@H](CCCCN)NC(=O)[C@H](CO)NC(=O)[C@H](CC(C)C)NC(=O)[C@H](CC(=O)O)NC(=O)[C@H](CO)NC(=O)[C@@H](NC(=O)[C@H](Cc1ccccc1)NC(=O)[C@@H](NC(=O)CNC(=O)[C@H](CCC(N)=O)NC(=O)C(C)(C)NC(=O)[C@@H](N)Cc1c[nH]cn1)[C@@H](C)O)[C@@H](C)O)C(C)C)C(=O)N[C@@H](CCCCNC(=O)COCCOCCNC(=O)COCCOCCNC(=O)CC[C@H](NC(=O)CC[C@H](NC(=O)CC[C@H](NC(=O)CCCCCCCCCCCCCCCCC(=O)O)C(=O)O)C(=O)O)C(=O)O)C(=O)N[C@H](C(N)=O)[C@@H](C)O, also called Chem. 9; Chem 9) | 10 | 44 | 0.5 | 17.3
6 | HXQGTFTSDYSRYLESRRARDFVQWLIKT (Aib at position 2; epsilon-N of Lys28 acylated with the substituent given in the name (17-carboxyheptadecanoyl-2xgGlu-Ado-gGlu-Ado-gGlu-Ado-gGlu-); C-terminal amide, also called Chem. 37; Chem 37) | 4 | 98 | 1.5 | 6.6
7 | H[Ac4c]QGTFTSDLSKYLESRRAQEFVQWLIK([γGlu-AEEA-AEEA-γGlu-γGlu-C18 diacid])T-NH2 (N-terminus assumed; SMILES CC[C@H](C)[C@H](NC(=O)[C@H](CC(C)C)NC(=O)[C@H](Cc1c[nH]c2ccccc12)NC(=O)[C@H](CCC(N)=O)NC(=O)[C@@H](NC(=O)[C@H](Cc1ccccc1)NC(=O)[C@H](CCC(=O)O)NC(=O)[C@H](CCC(N)=O)NC(=O)[C@H](C)NC(=O)[C@H](CCCNC(=N)N)NC(=O)[C@H](CCCNC(=N)N)NC(=O)[C@H](CO)NC(=O)[C@H](CCC(=O)O)NC(=O)[C@H](CC(C)C)NC(=O)[C@H](Cc1ccc(O)cc1)NC(=O)[C@H](CCCCN)NC(=O)[C@H](CO)NC(=O)[C@H](CC(C)C)NC(=O)[C@H](CC(=O)O)NC(=O)[C@H](CO)NC(=O)[C@@H](NC(=O)[C@H](Cc1ccccc1)NC(=O)[C@@H](NC(=O)CNC(=O)[C@H](CCC(N)=O)NC(=O)C1(NC(=O)[C@@H](N)Cc2c[nH]cn2)CCC1)[C@@H](C)O)[C@@H](C)O)C(C)C)C(=O)N[C@@H](CCCCNC(=O)CC[C@H](NC(=O)COCCOCCNC(=O)COCCOCCNC(=O)CC[C@H](NC(=O)CC[C@H](NC(=O)CCCCCCCCCCCCCCCCC(=O)O)C(=O)O)C(=O)O)C(=O)O)C(=O)N[C@H](C(N)=O)[C@@H](C)O, also called Chem. 38; Chem 38) | 2 | 12 | 0.3 | 2.7
8 | H[Aib]QGTFTSDVSKYLDARRAQDFVQWLIK([γGlu-AEEA-AEEA-γGlu-γGlu-C18 diacid])T-NH2 (N-terminus assumed; SMILES CC[C@H](C)[C@H](NC(=O)[C@H](CC(C)C)NC(=O)[C@H](Cc1c[nH]c2ccccc12)NC(=O)[C@H](CCC(N)=O)NC(=O)[C@@H](NC(=O)[C@H](Cc1ccccc1)NC(=O)[C@H](CC(=O)O)NC(=O)[C@H](CCC(N)=O)NC(=O)[C@H](C)NC(=O)[C@H](CCCNC(=N)N)NC(=O)[C@H](CCCNC(=N)N)NC(=O)[C@H](C)NC(=O)[C@H](CC(=O)O)NC(=O)[C@H](CC(C)C)NC(=O)[C@H](Cc1ccc(O)cc1)NC(=O)[C@H](CCCCN)NC(=O)[C@H](CO)NC(=O)[C@@H](NC(=O)[C@H](CC(=O)O)NC(=O)[C@H](CO)NC(=O)[C@@H](NC(=O)[C@H](Cc1ccccc1)NC(=O)[C@@H](NC(=O)CNC(=O)[C@H](CCC(N)=O)NC(=O)C(C)(C)NC(=O)[C@@H](N)Cc1c[nH]cn1)[C@@H](C)O)[C@@H](C)O)C(C)C)C(C)C)C(=O)N[C@@H](CCCCNC(=O)CC[C@H](NC(=O)COCCOCCNC(=O)COCCOCCNC(=O)CC[C@H](NC(=O)CC[C@H](NC(=O)CCCCCCCCCCCCCCCCC(=O)O)C(=O)O)C(=O)O)C(=O)O)C(=O)N[C@H](C(N)=O)[C@@H](C)O, also called Chem. 39; Chem 39) | 1 | 24 | 0.1 | 4.6
